We go through 2 molecules from US20030119096A1 (published 2003).

In test [1] the target is human GALR3 receptor (human) (UniProt O60755). Nature of the test: cell-based or functional assay.
The next test has as its target rat GALR1 receptor (rat) (UniProt Q62805). The experiment in a line: cell-based or functional assay.
In the next test the target is rat GALR2 receptor (rat) (UniProt O08726). The experiment in a line: cell-based or functional assay.
The next test concerns the target T1, rat GALR3 receptor (rat, UniProt O88626 1-370).
T1 construct: also called rGALR3; rGalR3
T1 sequence: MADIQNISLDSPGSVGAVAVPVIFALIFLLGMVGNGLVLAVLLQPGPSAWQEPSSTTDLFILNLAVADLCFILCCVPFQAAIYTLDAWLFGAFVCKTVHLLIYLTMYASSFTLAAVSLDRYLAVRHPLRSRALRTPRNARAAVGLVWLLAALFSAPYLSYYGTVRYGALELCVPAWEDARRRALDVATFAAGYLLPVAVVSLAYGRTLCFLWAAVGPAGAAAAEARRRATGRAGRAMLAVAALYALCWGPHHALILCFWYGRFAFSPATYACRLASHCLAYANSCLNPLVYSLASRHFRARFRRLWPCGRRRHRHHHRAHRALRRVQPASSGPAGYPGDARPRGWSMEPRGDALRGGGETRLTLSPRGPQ
Nature of the test: porcine 125I-galanin competition binding, 293 #105.

Chain of rat GALR1 receptor (rat) (Q62805 whole entry): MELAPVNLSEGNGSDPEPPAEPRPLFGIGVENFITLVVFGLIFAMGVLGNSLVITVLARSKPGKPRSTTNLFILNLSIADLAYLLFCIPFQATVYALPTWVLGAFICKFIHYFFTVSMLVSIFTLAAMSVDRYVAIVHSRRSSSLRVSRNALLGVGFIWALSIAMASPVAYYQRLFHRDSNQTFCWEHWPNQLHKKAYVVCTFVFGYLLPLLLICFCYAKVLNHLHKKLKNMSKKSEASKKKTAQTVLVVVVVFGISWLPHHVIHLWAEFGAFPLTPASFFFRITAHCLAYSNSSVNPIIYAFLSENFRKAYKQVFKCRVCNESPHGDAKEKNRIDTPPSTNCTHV
Chain of human GALR3 receptor (human) (O60755 whole entry): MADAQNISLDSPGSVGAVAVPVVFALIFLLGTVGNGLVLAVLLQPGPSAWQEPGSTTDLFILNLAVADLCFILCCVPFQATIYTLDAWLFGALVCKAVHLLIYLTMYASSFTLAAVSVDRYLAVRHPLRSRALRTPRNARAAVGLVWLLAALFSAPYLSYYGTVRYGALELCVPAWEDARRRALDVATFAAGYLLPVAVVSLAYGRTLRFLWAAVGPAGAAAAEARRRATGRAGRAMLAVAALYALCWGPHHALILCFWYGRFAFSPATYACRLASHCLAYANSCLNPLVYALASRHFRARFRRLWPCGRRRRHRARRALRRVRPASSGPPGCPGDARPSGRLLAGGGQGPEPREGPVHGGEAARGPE
Chain of rat GALR2 receptor (rat) (O08726 whole entry): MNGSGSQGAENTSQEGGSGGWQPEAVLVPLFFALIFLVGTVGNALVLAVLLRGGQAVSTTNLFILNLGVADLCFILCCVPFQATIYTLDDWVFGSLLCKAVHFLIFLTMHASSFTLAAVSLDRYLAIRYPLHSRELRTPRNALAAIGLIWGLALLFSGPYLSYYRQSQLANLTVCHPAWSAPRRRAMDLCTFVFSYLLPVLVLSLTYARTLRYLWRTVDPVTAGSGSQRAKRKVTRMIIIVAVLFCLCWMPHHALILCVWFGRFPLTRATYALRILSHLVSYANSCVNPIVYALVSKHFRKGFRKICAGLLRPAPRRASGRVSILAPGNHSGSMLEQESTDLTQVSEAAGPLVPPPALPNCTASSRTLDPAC

Take C7 (peptide): the Oocyte EC50 for stimulation of GIRKs in test [1] was found to be 343 nM. Besides, the EC50, cAMP, LM(tk-) with rat GALR1 receptor (rat) came to 0.52 nM. The molecule further displayed an EC50, AA (arachidonic acid release), CHO #79 with rat GALR2 receptor (rat) of 2.41 nM.

B1: (-)9 to (+)29 galanin, porcine (peptide, UniProt P07480 24-61, looked up)
peptide: LGSPVKEKRGWTLNSAGYLLGPHAIDNHRSFHDKYGLA
notes: range -9 to +29; also called galanin -9 to +29
The Ki is a measure of affinity in units of concentration, obtained from inhibition or displacement. Read a high Ki as weaker binding. In turn, B1 yielded a Ki in the test with rat GALR3 receptor of 4.17 nM.
